Results published in publication PMC5625703.

Molecular target: pGBKT7-53 (control bait)
Assay: two-hybrid; β-galactosidase activity assay (Yeast β-galactosidase Assay Kit) on a colony from a DDO plate, 37 °C, OD 420 nm; average of three measurements

pGADT7-T (control prey) (natural protein)
β-galactosidase activity: 401 units
